Test results as given in patent US9637764B2, “Methods of producing 7-carbon chemicals via carbon chain elongation associated with cyclohexane carboxylate synthesis” (INVISTA North America S.á r.l., priority 2012, dated 2017).

B1: SEQ ID NO 4: Segniliparus rugosus carboxylate reductase, Genbank Accession No. EFV11917.1 (protein, listed as Segniliparus rugosus)
chain: MGDGEERAKRFFQRIGELSATDPQFAAAAPDPAVVEAVSDPSLSFTRYLDTLMRGYAERPALAHRVGAGYETISYGELWARVGAIAAAWQADGLAPGDFVATVGFTSPDYVAVDLAAARSGLVSVPLQAGASLAQLVGILEETEPKVLAASASSLEGAVACALAAPSVQRLVVFDLRGPDASESAADERRGALADAEEQLARAGRAVVVETLADLAARGEALPEAPLFEPAEGEDPLALLIYTSGSTGAPKGAMYSQRLVSQLWGRTPVVPGMPNISLHYMPLSHSYGRAVLAGALSAGGTAHFTANSDLSTLFEDIALARPTFLALVPRVCEMLFQESQRGQDVAELRERVLGGRLLVAVCGSAPLSPEMRAFMEEVLGFPLLDGYGSTEALGVMRNGIIQRPPVIDYKLVDVPELGYRTTDKPYPRGELCIRSTSLISGYYKRPEITAEVFDAQGYYKTGDVMAEIAPDHLVYVDRSKNVLKLSQGEFVAVAKLEAAYGTSPYVKQIFVYGNSERSFLLAVVVPNAEVLGARDQEEAKPLIAASLQKIAKEAGLQSYEVPRDFLIETEPFTTQNGLLSEVGKLLRPKLKARYGEALEARYDEIAHGQADELRALRDGAGQRPVVETVVRAAVAISGSEGAEVGPEANFADLGGDSLSALSLANLLHDVFEVEVPVRIIIGPTASLAGIAKHIEAERAGASAPTAASVHGAGATRIRASELTLEKFLPEDLLAAAKGLPAADQVRTVLLTGANGWLGRFLALEQLERLARSGQDGGKLICLVRGKDAAAARRRIEETLGTDPALAARFAELAEGRLEVVPGDVGEPKFGLDDAAWDRLAEEVDVIVHPAALVNHVLPYHQLFGPNVVGTAEIIRLAITAKRKPVTYLSTVAVAAGVEPSSFEEDGDIRAVVPERPLGDGYANGYGNSKWAGEVLLREAHELVGLPVAVFRSDMILAHTRYTGQLNVPDQFTRLVLSLLATGIAPKSFYQQGAAGERQRAHYDGIPVDFTAEAITTLGAEPSWFDGGAGFRSFDVFNPHHDGVGLDEFVDWLIEAGHPISRIDDHKEWFARFETAVRGLPEAQRQHSLLPLLRAYSFPHPPVDGSVYPTGKFQGAVKAAQVGSDHDVPHLGKALIVKYADDLKALGLL
B2: tesB: Escherichia coli thioesterase encoded by tesB, GenBank Accession No. AAA24665.1 (protein, listed as Escherichia coli)
chain: MSQALKNLLTLLNLEKIEEGLFRGQSEDLGLRQVFGGQVVGQALYAAKETVPEERLVHSFHSYFLRPGDSKKPIIYDVETLRDGNSFSARRVAAIQNGKPIFYMTASFQAPEAGFEHQKTMPSAPAPDGLPSETQIAQSLAHLLPPVLKDKFICDRPLEVRPVEFHNPLKGHVAEPHRQVWIRANGSVPDDLRVHQYLLGYASDLNFLPVALQPHGIGFLEPGIQIATIDHSMWFHRPFNLNEWLLYSVESTSASSARGFVRGEFYTQDGVLVASTVQEGVMRNHN

Tests used:
[1] = Carboxylate reductase activity assay, pimelate to pimelate semialdehyde (NADPH consumption, absorbance at 340 nm); assay type: biochemical; conditions: purified enzyme enhanced by the gene product of sfp, 2 mM pimelate, 1 mM ATP, 1 mM NADPH, pH=7.5, room temperature, 20 min; against the empty vector control; FIG. 10
Experimental: A sequence encoding a HIS-tag was added to the genes from Segniliparus rugosus and Segniliparus rotundus that encode the carboxylate reductases of SEQ ID NOs: 4 and 7, respectively (see FIGS. 7C and 7F), such that N-terminal HIS tagged carboxylate reductases could be produced. Each of the modified genes was cloned into a pET Duet expression vector along with a sfp gene encoding a HIS-tagged phosphopantetheine transferase from Bacillus subtilis, both under the T7 promoter. Each expression vector was transformed into a BL21[DE3] E. coli host and the resulting recombinant E. coli strains were cultivated at 37° C. in a 250 mL shake flask culture containing 50 mL LB media and antibiotic selection pressure, with shaking at 230 rpm. Each culture was induced overnight at 37° C. using an auto-induction media.
The pellet from each induced shake flask culture was harvested via centrifugation. Each pellet was resuspended and lysed via sonication, and the cell debris was separated from the supernatant via centrifugation. […]
Enzyme activity assays (i.e., from pimelate to pimelate semialdehyde) were performed in triplicate in a buffer composed of a final concentration of 50 mM HEPES buffer (pH=7.5), 2 mM pimelate, 10 mM MgCl2, 1 mM ATP and 1 mM NADPH. […] The consumption of NADPH was monitored by absorbance at 340 nm.

[2] = Thioesterase enzyme activity assay, pimeloyl-CoA to pimelate (release of Coenzyme A, Ellman's reagent, absorbance at 412 nm); assay type: biochemical; conditions: 667 μM pimeloyl-CoA, 0.8 μM enzyme, pH=7.4, 37° C., 20 min; compared to the empty vector control; FIG. 8
Experimental: A sequence encoding an N-terminal His tag was added to the tesB gene from Escherichia coli that encodes a thioesterase (SEQ ID NO 1, see FIG. 7A), such that an N-terminal HIS tagged thioesterase could be produced. The modified tesB gene was cloned into a pET15b expression vector under control of the T7 promoter. The expression vector was transformed into a BL21[DE3] E. coli host. The resulting recombinant E. coli strain was cultivated at 37° C. in a 500 mL shake flask culture containing 50 mL Luria Broth (LB) media and antibiotic selection pressure, with shaking at 230 rpm. The culture was induced overnight at 17° C. using 0.5 mM IPTG.
The pellet from the induced shake flask culture was harvested via centrifugation. The pellet was resuspended and lysed in Y-Per™ solution (ThermoScientific, Rockford, Ill.). The cell debris was separated from the supernatant via centrifugation. […]
The enzyme activity assay was performed in triplicate in a buffer composed of 50 mM phosphate buffer (pH=7.4), 0.1 mM Ellman's reagent, and 667 μM of pimeloyl-CoA (as substrate). […] The release of Coenzyme A was monitored by absorbance at 412 nm. The absorbance associated with the substrate only control, which contained boiled enzyme, was subtracted from the active enzyme assay absorbance and compared to the empty vector control.

| Molecule | carboxylate reductase activity for converting pimelate to pimelate semialdehyde [1] | thioesterase activity for converting pimeloyl-CoA to pimelate [2] |
| --- | --- | --- |
| B1 | accepted pimelate as substrate |  |
| B2 |  | accepted pimeloyl-CoA as substrate |
